From paper PMC4403245

Biological target: GST-tagged KAHRP fragment K1D (Plasmodium falciparum) (UniProt P06719)
Assay: SPR

Sequence of UniProt P06719 (P06719 35-657): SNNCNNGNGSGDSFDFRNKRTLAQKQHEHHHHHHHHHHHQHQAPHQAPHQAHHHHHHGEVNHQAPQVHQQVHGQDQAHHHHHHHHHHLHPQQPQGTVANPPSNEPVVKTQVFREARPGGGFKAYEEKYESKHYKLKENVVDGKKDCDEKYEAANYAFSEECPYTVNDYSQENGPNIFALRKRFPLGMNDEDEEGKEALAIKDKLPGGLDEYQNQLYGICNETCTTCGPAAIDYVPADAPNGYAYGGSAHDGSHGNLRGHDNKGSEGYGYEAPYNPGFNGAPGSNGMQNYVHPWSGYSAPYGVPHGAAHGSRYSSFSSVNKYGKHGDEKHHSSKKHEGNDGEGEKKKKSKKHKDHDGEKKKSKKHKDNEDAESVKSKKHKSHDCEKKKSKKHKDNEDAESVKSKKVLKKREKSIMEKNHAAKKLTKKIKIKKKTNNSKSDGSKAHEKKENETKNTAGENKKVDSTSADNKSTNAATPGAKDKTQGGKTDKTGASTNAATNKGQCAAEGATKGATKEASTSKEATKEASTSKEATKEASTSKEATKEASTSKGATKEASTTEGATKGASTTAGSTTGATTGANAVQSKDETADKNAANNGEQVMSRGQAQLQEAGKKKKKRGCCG

| Substance | Kd [nM] | koff [s⁻¹] | kon [M⁻¹ s⁻¹] |
| --- | --- | --- | --- |
| MBP-tagged D3 subdomain of the ankyrin R membrane-binding domain (from UniProt P16157 404-601) (domain or fragment) | 46 | 0.00137 | 29900 |
| MBP-tagged ankyrin R N-terminal 89 kDa membrane binding domain (from UniProt P16157 1-827) (domain or fragment) | 38 | 0.00161 | 42800 |
